Here are results for one molecule from patent US20230242646A1 (JJP BIOLOGICS SP Z O O, published 2023).

Where only a bound is given, the exact number is not on record here.

Assay [1] deals with membrane human CD89 on ex vivo primary human neutrophilic granulocytes or monocytic U937 cells (human, UniProt P24071 22-287). Briefly: cell-based or functional assay.
Assay [2] deals with T1, chimeric human/cynomolgus monkey CD89-hotspots on HEK293F cells (human/cynomolgus chimera, UniProt P24071 22-287).
T1 construct: also called dThr58, Gln59; dArg73, Arg74, Lys76
T1 chain: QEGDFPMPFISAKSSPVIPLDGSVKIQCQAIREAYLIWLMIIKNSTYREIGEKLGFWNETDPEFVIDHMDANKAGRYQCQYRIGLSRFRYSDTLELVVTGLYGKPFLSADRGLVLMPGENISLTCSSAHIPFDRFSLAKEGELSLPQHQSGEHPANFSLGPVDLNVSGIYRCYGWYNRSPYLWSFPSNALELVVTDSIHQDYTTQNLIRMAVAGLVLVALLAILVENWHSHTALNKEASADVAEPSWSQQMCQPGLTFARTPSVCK
Briefly: FACS, transiently transfected HEK293F.
Description: (§1) To this end, transient transfected HEK293F cells were put at 10 × 10⁶ cells/mL in ice-chilled phosphate-buffered saline containing 0.1% BSA (Sigma)/0.05% NaN₃ (PBS/BSA/NaN₃) supplemented with 50 µg/mL human IgGs (blocking FcY receptors; Sigma) for 10 minutes at 4° C. Then, 10 µL/tube (i.e., 0.1 × 10⁶ cells) of these cells were incubated with or without 100 µL purified mouse anti-human CD89 antibody at 10 µg/mL (in PBS/BSA/NaN₃) for 30 minutes at 4° C. […] After extensive washing in PBS/BSA/NaN₃, cells were subsequently incubated with 1:200 diluted PE-conjugated goat anti-mouse IgG Fcy-specific antibodies (Jackson ImmunoResearch) for 30 minutes at 4° C. After extensive washing in PBS/BSA/NaN₃, cells were fixed in 2% formaldehyde in PBS/BSA/NaN₃ for 30 minutes at 4° C.

Assay [3] has as its target T2, membrane-bound full-length human CD89 on HEK293F cells (human, UniProt P24071 22-287).
T2 construct: 2 or transient transfectants; also called membrane human CD89; human FcaRI
Description: FACS HEK293F-huCD89, 10 ug/mL; competitor PE-A3.
Description: Then, 10 µL/tube (i.e., 0.1 × 10⁶ cells) of these cells were incubated with or without 100 µL purified mouse anti-human CD89 antibody at 10 µg/mL (in PBS/BSA/NaN₃) for 30 minutes at 4° C. […] After extensive washing in PBS/BSA/NaN₃, cells were fixed in 2% formaldehyde in PBS/BSA/NaN₃ for 30 minutes at 4° C.

For assay [4], the target named is T3, chimeric human/cynomolgus monkey CD89-II on HEK293F cells (human/cynomolgus chimera, UniProt P24071 22-287).
T3 construct: also called dIle47 - Ile71 human EC1-CD89; II (47-71)
T3 chain: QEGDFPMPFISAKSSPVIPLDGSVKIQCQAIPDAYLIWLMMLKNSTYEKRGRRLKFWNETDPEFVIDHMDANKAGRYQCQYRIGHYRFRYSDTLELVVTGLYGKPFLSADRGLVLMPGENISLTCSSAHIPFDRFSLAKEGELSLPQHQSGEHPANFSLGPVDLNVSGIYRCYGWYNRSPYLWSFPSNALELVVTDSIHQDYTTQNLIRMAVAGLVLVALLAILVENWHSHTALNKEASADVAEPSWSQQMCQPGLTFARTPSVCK
Briefly: FACS, 10 µg/mL, transiently transfected HEK293F.
Description: as §1

Assay [5] concerns the target T4, chimeric human/cynomolgus monkey CD89-I on HEK293F cells (human/cynomolgus chimera, UniProt P24071 22-287).
T4 construct: also called dGln22 - Lys46 human EC1-CD89; I (22-46)
T4 chain: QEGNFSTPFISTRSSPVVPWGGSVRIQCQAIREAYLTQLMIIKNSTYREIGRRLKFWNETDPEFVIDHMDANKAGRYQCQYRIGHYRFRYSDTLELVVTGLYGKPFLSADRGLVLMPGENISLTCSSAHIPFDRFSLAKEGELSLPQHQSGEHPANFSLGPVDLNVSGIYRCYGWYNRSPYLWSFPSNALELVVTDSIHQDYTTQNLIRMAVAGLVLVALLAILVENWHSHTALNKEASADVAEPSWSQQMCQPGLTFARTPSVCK
Briefly: FACS, 10 µg/mL, transiently transfected HEK293F.
Description: as §1

B1: CD89/IgA blocking mouse anti-human CD89-specific antibody 10E7 (antibody, V domains shown)
VH: EVQLVESGGGLVQPGGSLKLSCAASGLTFSSYGMSWVRQTPDKRLELVATINGNGDITYYPDSVKGRFTISRDNAKNTLYLQMSSLKSEDTAMYYCARDYDYDYAMDYWGQGTSVTVSS
VL: DIQMTQSTSSLSASLGDSVTISCRASQDIINYLNWYQQKPDGTVKLLIYYTSRLHSGVPSRFSGSGSGTEYSLTVSNLEKEDIATYFCQQGKTLPYTFGGGTKLEIK
notes: biotinylated in the Octet assay; also called mouse 10E7
Regarding B1, in assay [1], the “IC50 (read off the bars), binding of granulocytes to plate-bound serum IgA [Donor 2]” value is about 0.4 µg/mL. The binding result in assay [2] is on record as “no binding (tested: 10 µg/mL)”; in assay [4], “binds”; in assay [5] it was “binds”. Besides, the “% blocking of PE-A3 binding” value in assay [3] was under 25%.
